Data set [1] deals with 4T1 orthotopic tumor-bearing BALB/c mice. The experiment in a line: in vivo. As to conditions: female, BALB/c, mouse, iv; for biodistribution, Tumor (4T1 tumoral uptake): 4 h. As for the experimental part:
(§1) 4T1 orthotopic BALB/c mouse model. The cells were removed from the flasks, concentrated, and resuspended in minimal media for cell counting. The cells were then diluted to contain approximately 1 million cells in 30 μL of media (for orthotopic allografts). Following an MSKCC Institutional Animal Care and Use Committee approved protocol, 8-10 week old BALB/c mice (Charles River Laboratories, Wilmington, MA) were surgically implanted with one million 4T1 cancer cells into the first or the last mammary fat pad of the right side of the animal using aseptic surgical techniques and sterile staple closures while the mice were under anesthetic. Additionally, mice were given injections of meloxicam (24 h pain killer) in the scruff and bupivacaine intradermally prior to surgical incisions. One day post surgery, the mice were again given meloxicam and checked to ensure that the closure was healing. Two and three days post surgery, the mice were checked to ensure that the animals were healthy and recovering well from the surgery. Five to seven days post surgery, the staples were removed. Five to nine days post surgery, the mice were injected with 50-75 μCi (0.9-0.4 nmol) of the respective radiopharmaceutical for in vivo biodistribution or 500-600 μCi (9-11 nmol) for in vivo imaging. The mice receiving ^64Cu-NOTA-pHLIP were sacrificed at 1, 2, 4, 12, 24, 36, and 48 h; the mice receiving [^18F]—AlF-NOTA-pHLIP were sacrificed at 0.5, 1, 2, 4, 6 and 8 h. The 4T1 tumors in this study were purposely used 5-9 days after inoculation to ensure lower tumoral pH. Animal models. Animal studies were conducted according to MSKCC IACUC-approved animal protocol. 4T1 (orthotopic breast cancer allografts of 1×10^6 cells surgically implanted in the mammary fat pad) and B16-F10 (orthotopic melanoma allografts of 1×10^5 cells injected intradermally on the shoulder) tumors were orthotopically inoculated in media in female BALB/c and C57Bl/6 mice (Charles River Laboratories (CRL)), respectively. Additionally, PC3 (3×10^6 cells) or LNCaP (3-6×10^6 cells) tumors were subcutaneously xenografted on the shoulder of athymic nude male mice (CRL). Mice were used once tumor volumes were approximately 90-300 mm^3. In vivo animal PET imaging and biodistribution. Mice were injected with radiolabeled NOTA-pHLIP derivatives i.v. (500-700 μCi/mouse for PET or SPECT imaging studies and 25-100 μCi/mouse for biodistribution studies). All injections were less than 200 μL with <10% EtOH in sterile PBS. PET images were obtained with the mice under anesthesia in an Inveon PET-CT or microPET Focus 120 (Siemens) at 0.5-48 h p.i. All images were analyzed using ASIPro VM (Concorde Microsystems). SPECT images were obtained with the mice under anesthesia in a NanoSPECT/CT Plus at 4-24 h p.i. All SPECT images were reconstructed using HiSPECT and analyzed using InVivoScope. Dissections for ex vivo biodistribution were performed on mice after CO2 asphyxiation or cervical dislocation while anesthetized at reported time points. Weight of the syringe prior to injection and after injection was used to determine the mass of injectate. Activity of the syringe prior to injection and after injection was used to determine the percent of injectate administered. The mass injected was corrected by the percent of radioactivity injected. Four to five aliquots (10 μL) were weighed and counted as internal standards for each study. All of the collected organs were counted using an automatic gamma counter (Wizard 3″, PerkinElmer, Waltham, MA). The total injected dose was found as the mass injected dose×fraction radioactivity injected×internal standard average counts/g. The percent injected dose (% ID) was determined as the counts for the tissue×100/total injected dose. The % ID/g was calculated as the % ID/tissue weight. The average and standard deviation of the % ID and % ID/g was determined using normal methods (n−1) for each set of mice.

A short description of a further data set: in vivo. As to conditions: female, BALB/c, mouse, iv, total radioactivity; for tissue uptake at 24 h: 4T1 tumoral uptake; for tissue uptake at 4 h: biodistribution, Tumor (4T1 tumoral uptake). As for the experimental part:
as §1

As for `CC(C)C[C@@H](NC(=O)[C@@H](CC(C)C)NC(=O)[C@@H](CC(=O)O)NC(=O)[C@@H](CC(C)C)NC(=O)[C@@H](CC(C)C)NC(=O)[C@@H](CC(C)C)NC(=O)[C@H](NC(=O)[C@@H](CC(=O)O)NC(=O)[C@H](NC(=O)[C@H]1CCCN1C(=O)[C@@H](Cc1ccccc1)NC(=O)[C@@H](CC(C)C)NC(=O)[C@@H](CC(C)C)NC(=O)[C@@H](CC(=O)O)NC(=O)[C@@H](CC(C)C)NC(=O)[C@@H](Cc1ccc(O)cc1)NC(=O)[C@@H](C)NC(=O)[C@@H](CCCNC(=N)N)NC(=O)[C@@H](Cc1c[nH]c2ccccc12)NC(=O)[C@H]1CCCN1C(=O)[C@@H](CC(N)=O)NC(=O)[C@@H](CCC(N)=O)NC(=O)[C@@H](CC(=O)O)NC(=O)[C@@H](CC(=O)O)NC(=O)[C@@H](CSC1CC(=O)N(CCNC(=O)CN2CCN(CC(=O)O)CCN(CC(=O)O)CC2)C1=O)NC(=O)[C@@H](C)N)[C@H](C)O)[C@H](C)O)C(=O)N[C@H](Cc1c[nH]c2ccccc12)C(=O)O` (single isomer, unassigned) [^67Ga-NO2A-cysVar3, metal not drawn], in data set [1] (50 uCi, 24 h), the 4T1 tumoral uptake is 26±4 % ID/g. The “biodistribution, Tumor (4T1 tumoral uptake)” value in data set [1] is recorded as 12±3 % ID/g. The tissue uptake at 24 h in “in vivo” (500 uCi) amounted to 34 ± 3 %ID/g.

Consider `CC(C)C[C@@H](NC(=O)[C@@H](CC(C)C)NC(=O)[C@@H](CC(=O)O)NC(=O)[C@@H](CC(C)C)NC(=O)[C@@H](CC(C)C)NC(=O)[C@@H](CC(C)C)NC(=O)[C@H](NC(=O)[C@@H](CC(=O)O)NC(=O)[C@H](NC(=O)[C@H]1CCCN1C(=O)[C@@H](Cc1ccccc1)NC(=O)[C@@H](CC(C)C)NC(=O)[C@@H](CC(C)C)NC(=O)[C@@H](CC(=O)O)NC(=O)[C@@H](CC(C)C)NC(=O)[C@@H](Cc1ccc(O)cc1)NC(=O)[C@@H](C)NC(=O)[C@@H](CCCNC(=N)N)NC(=O)[C@@H](Cc1c[nH]c2ccccc12)NC(=O)[C@H]1CCCN1C(=O)[C@@H](CC(N)=O)NC(=O)[C@@H](CCC(N)=O)NC(=O)[C@@H](CC(=O)O)NC(=O)[C@@H](CC(=O)O)NC(=O)[C@@H](CS)NC(=O)[C@@H](C)NC(=S)Nc1ccc(CC2CN(CC(=O)O)CCN(CC(=O)O)CCN2CC(=O)O)cc1)[C@H](C)O)[C@H](C)O)C(=O)N[C@H](Cc1c[nH]c2ccccc12)C(=O)O` (single isomer, unassigned) [^67Ga-NOTA-Var3, metal not drawn], for which the tissue uptake at 24 h in the data set “in vivo” (50 uCi) was 2.93 ± 0.11 %ID/g. For the same compound, in “in vivo”, the tissue uptake at 4 h came out at 2.05 ± 0.17 %ID/g.

Regarding `CC(C)C[C@@H](NC(=O)[C@@H](CC(C)C)NC(=O)[C@@H](CC(=O)O)NC(=O)[C@@H](CC(C)C)NC(=O)[C@@H](CC(C)C)NC(=O)[C@@H](CC(C)C)NC(=O)[C@H](NC(=O)[C@@H](CC(=O)O)NC(=O)[C@H](NC(=O)[C@H]1CCCN1C(=O)[C@@H](Cc1ccccc1)NC(=O)[C@@H](CC(C)C)NC(=O)[C@@H](CC(C)C)NC(=O)[C@@H](CC(=O)O)NC(=O)[C@@H](CC(C)C)NC(=O)[C@@H](Cc1ccc(O)cc1)NC(=O)[C@@H](C)NC(=O)[C@@H](CCCNC(=N)N)NC(=O)[C@@H](Cc1c[nH]c2ccccc12)NC(=O)[C@H]1CCCN1C(=O)[C@@H](CC(N)=O)NC(=O)[C@@H](CCC(N)=O)NC(=O)[C@@H](CC(=O)O)NC(=O)[C@@H](CC(=O)O)NC(=O)[C@@H](CSC1CC(=O)N(CCNC(=O)CN2CCN(CC(=O)O)CCN(CC(=O)O)CC2)C1=O)NC(=O)[C@@H](C)N)[C@H](C)O)[C@H](C)O)C(=O)N[C@H](Cc1c[nH]c2ccccc12)C(=O)O` (single isomer, unassigned) [^68Ga-NO2A-cysVar3, metal not drawn], the “biodistribution, Tumor (4T1 tumoral uptake)” value in data set [1] amounted to 6±2 % ID/g.

With `CC(C)C[C@@H](NC(=O)[C@@H](Cc1ccc(O)cc1)NC(=O)[C@@H](C)NC(=O)[C@@H](CCCNC(=N)N)NC(=O)[C@@H](Cc1c[nH]c2ccccc12)NC(=O)[C@H]1CCCN1C(=O)[C@@H](CC(N)=O)NC(=O)[C@@H](CCC(N)=O)NC(=O)[C@@H](CC(=O)O)NC(=O)[C@@H](CC(=O)O)NC(=O)[C@@H](C)N)C(=O)N[C@H](CC(=O)O)C(=O)N[C@H](CC(C)C)C(=O)N[C@H](CC(C)C)C(=O)N[C@H](Cc1ccccc1)C(=O)N1CCC[C@@H]1C(=O)N[C@@H](C(=O)N[C@H](CC(=O)O)C(=O)N[C@@H](C(=O)N[C@H](CC(C)C)C(=O)N[C@H](CC(C)C)C(=O)N[C@H](CC(C)C)C(=O)N[C@H](CC(=O)O)C(=O)N[C@H](CC(C)C)C(=O)N[C@H](CC(C)C)C(=O)N[C@H](Cc1c[nH]c2ccccc12)C(=O)N[C@H](CSC1CC(=O)N(CCNC(=O)CN2CCN(CC(=O)O)CCN(CC(=O)O)CC2)C1=O)C(=O)NCC(=O)O)[C@H](C)O)[C@H](C)O` (some centres unmarked) [^67Ga-NO2A-C^27Var3, metal not drawn], in “in vivo” (50 uCi), the tissue uptake at 24 h worked out at 23 ± 5 %ID/g. Further, the tissue uptake at 4 h in “in vivo” came to 20.5 ± 1 %ID/g.

These data come from patent US12551583B2, “Radiolabeled ligands for targeted PET/SPECT imaging and methods of their use” (MEMORIAL SLOAN KETTERING CANCER CENTER, priority 2016, dated 2026).
